Measured values published in US20100015650.

Biological target: T1, BRB1 tyrosine kinase substrate peptide
T1 chain: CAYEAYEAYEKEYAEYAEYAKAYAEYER

Row | Protein | Signal to Noise ratio with BRB1 Peptide (TR-FRET kinase assay; kinase 0.25 nM) | also measured
1 | EphB4 (protein) LCLRKQSNGREAEYSDKHGQYLIGHGTKVYIDPFTYEDPNEAVREFAKEIDVSYVKIEEVIGAGEFGEVCRGRLKAPGKKESCVAIKTLKGGYTERQRREFLSEASIMGQFEHPNIIRLEGVVTNSMPVMILTEFMENGALDSFLRLNDGQFTVIQLVGMLRGIASGMRYLAEMSYVHRDLAARNILVNSNLVCKVSDFGLSRFLEENSSDPTYTSSLGGKIPIRWTAPEAIAFRKFTSASDAWSYGIVMWEVMSFGERPYWDMSNQDVINAIEQDYRLPPPPDCPTSLHQLMLDCWQKDRNARPRFPQVVSALDKMIRNPASLKIVARENGGASHPLLDQRQPHYSAFGSVGEWLRAIKMGRYEESFAAAGFGSFELVSQISAEDLLRIGVTLAGHQKKILASVQHMKSQAKPGTPGGTGGPAPQY | – | Signal to Noise ratio with BRB1 Peptide (TR-FRET kinase assay; kinase 0.5 nM): 29.8
2 | FLT1 (protein) RKMKRSSSEIKTDYLSIIMDPDEVPLDEQCERLPYDASKWEFARERLKLGKSLGRGAFGKVVQASAFGIKKSPTCRTVAVKMLKEGATASEYKALMTELKILTHIGHHLNVVNLLGACTKQGGPLMVIVEYCKYGNLSNYLKSKRDLFFLNKDAALHMEPKKEKMEPGLEQGKKPRLDSVTSSESFASSGFQEDKSLSDVEEEEDSDGFYKEPITMEDLISYSFQVARGMEFLSSRKCIHRDLAARNILLSENNVVKICDFGLARDIYKNPDYVRKGDTRLPLKWMAPESIFDKIYSTKSDVWSYGVLLWEIFSLGGSPYPGVQMDEDFCSRLREGMRMRAPEYSTPEIYQIMLDCWHRDPKERPRFAELVEKLGDLLQANVQQDGKDYIPINAILTGNSGFTYSTPAFSEDFFKESISAPKFNSGSSDDVRYVNAFKFMSLERIKTFEELLPNATSMFDDYQGDSSTLLASPMLKRFTWTDSKPKASLKIDLRVTSKSKESGLSDVSRPSFCHSSCGHVSEGKRRFTYDHAELERKIACCSPPPDYNSVVLYSTPPI | 4.1 | –
3 | IGF1R (protein) RKRNNSRLGNGVLYASVNPEYFSAADVYVPDEWEVAREKITMSRELGQGSFGMVYEGVAKGVVKDEPETRVAIKTVNEAASMRERIEFLNEASVMKEFNCHHVVRLLGVVSQGQPTLVIMELMTRGDLKSYLRSLRPEMENNPVLAPPSLSKMIQMAGEIADGMAYLNANKFVHRDLAARNCMVAEDFTVKIGDFGMTRDIYETDYYRKGGKGLLPVRWMSPESLKDGVFTTYSDVWSFGVVLWEIATLAEQPYQGLSNEQVLRFVMEGGLLDKPDNCPDMLFELMRMCWQYNPKMRPSFLEIISSIKEEMEPGFREVSFYYSEENKLPEPEELDLEPENMESVPLDPSASSSSLPLPDRHSGHKAENGPGPGVLVLRASFDERQPYAHMNGGRKNERALPLPQSSTC | 25.1 | –
4 | FGFR2 (protein) RMKNTTKKPDFSSQPAVHKLTKRIPLRRQVTVSAESSSSMNSNTPLVRITTRLSSTADTPMLAGVSEYELPEDPKWEFPRDKLTLGKPLGEGCFGQVVMAEAVGIDKDKPKEAVTVAVKMLKDDATEKDLSDLVSEMEMMKMIGKHKNIINLLGACTQDGPLYVIVEYASKGNLREYLRARRPPGMEYSYDINRVPEEQMTFKDLVSCTYQLARGMEYLASQKCIHRDLAARNVLVTENNVMKIADFGLARDINNIDYYKKTTNGRLPVKWMAPEALFDRVYTHQSDVWSFGVLMWEIFTLGGSPYPGIPVEELFKLLKEGHRMDKPANCTNELYMMMRDCWHAVPSQRPTFKQLVEDLDRILTLTTNEEYLDLSQPLEQYSPSYPDTRSSCSSGDDSVFSPDPMPYEPCLPQYPHINGSVKT | 27.1 | –
5 | KIT (protein) TYKYLQKPMYEVQWKVVEEINGNNYVYIDPTQLPYDHKWEFPRNRLSFGKTLGAGAFGKVVEATAYGLIKSDAAMTVAVKMLKPSAHLTEREALMSELKVLSYLGNHMNIVNLLGACTIGGPTLVITEYCCYGDLLNFLRRKRDSFICSKQEDHAEAALYKNLLHSKESSCSDSTNEYMDMKPGVSYVVPTKADKRRSVRIGSYIERDVTPAIMEDDELALDLEDLLSFSYQVAKGMAFLASKNCIHRDLAARNILLTHGRITKICDFGLARDIKNDSNYVVKGNARLPVKWMAPESIFNCVYTFESDVWSYGIFLWELFSLGSSPYPGMPVDSKFYKMIKEGFRMLSPEHAPAEMYDIMKTCWDADPLKRPTFKQIVQLIEKQISESTNHIYSNLANCSPNRQKPVVDHSVRINSVGSTASSSQPLLVHDDV | – | Signal to Noise ratio with BRB1 Peptide (TR-FRET kinase assay; kinase 2 nM): 1.5
6 | FMS (CSFR) (protein) KYKQKPKYQVRWKIIESYEGNSYTFIDPTQLPYNEKWEFPRNNLQFGKTLGAGAFGKVVEATAFGLGKEDAVLKVAVKMLKSTAHADEKEALMSELKIMSHLGQHENIVNLLGACTHGGPVLVITEYCCYGDLLNFLRRKAEAMLGPSLSPGQDPEGGVDYKNIHLEKKYVRRDSGFSSQGVDTYVEMRPVSTSSNDSFSEQDLDKEDGRPLELRDLLHFSSQVAQGMAFLASKNCIHRDVAARNVLLTNGHVAKIGDFGLARDIMNDSNYIVKGNARLPVKWMAPESIFDCVYTVQSDVWSYGILLWEIFSLGLNPYPGILVNSKFYKLVKDGYQMAQPAFAPKNIYSIMQACWALEPTHRPTFQQICSFLQEQAQEDRRERDYTNLPSSSRSGGSGSSSSELEEESSSEHLTCCEQGDIAQPLLQPNNYQFC | 3 | –
7 | FLT3 (protein) HKYKKQFRYESQLQMVQVTGSSDNEYFYVDFREYEYDLKWEFPRENLEFGKVLGSGAFGKVMNATAYGISKTGVSIQVAVKMLKEKADSSEREALMSELKMMTQLGSHENIVNLLGACTLSGPIYLIFEYCCYGDLLNYLRSKREKFHRTWTEIFKEHNFSFYPTFQSHPNSSMPGSREVQIHPDSDQISGLHGNSFHSEDEIEYENQKRLEEEEDLNVLTFEDLLCFAYQVAKGMEFLEFKSCVHRDLAARNVLVTHGKVVKICDFGLARDIMSDSNYVVRGNARLPVKWMAPESLFEGIYTIKSDVWSYGILLWEIFSLGVNPYPGIPVDANFYKLIQNGFKMDQPFYATEEIYIIMQSCWAFDSRKRPSFPNLTSFLGCQLADAEEAMYQNVDGRVSECPHTYQNRRPFSREMDLGLLSPQAQVEDS | – | Signal to Noise ratio with BRB1 Peptide (TR-FRET kinase assay; kinase 0.1 nM): 25.9
8 | FGFR3 (protein) RLRSPPKKGLGSPTVHKISRFPLKRQVSLESNASMSSNTPLVRIARLSSGEGPTLANVSELELPADPKWELSRARLTLGKPLGEGCFGQVVMAEAIGIDKDRAAKPVTVAVKMLKDDATDKDLSDLVSEMEMMKMIGKHKNIINLLGACTQGGPLYVLVEYAAKGNLREFLRARRPPGLDYSFDTCKPPEEQLTFKDLVSCAYQVARGMEYLASQKCIHRDLAARNVLVTEDNVMKIADFGLARDVHNLDYYKKTTNGRLPVKWMAPEALFDRVYTHQSDVWSFGVLLWEIFTLGGSPYPGIPVEELFKLLKEGHRMDKPANCTHDLYMIMRECWHAAPSQRPTFKQLVEDLDRVLTVTSTDEYLDLSAPFEQYSPGGQDTPSSSSSGDDSVFAHDLLPPAPPSSGGSRT | 24.4 | –
9 | HER4 (ERBB4) (protein) RRKSIKKKRALRRFLETELVEPLTPSGTAPNQAQLRILKETELKRVKVLGSGAFGTVYKGIWVPEGETVKIPVAIKILNETTGPKANVEFMDEALIMASMDHPHLVRLLGVCLSPTIQLVTQLMPHGCLLEYVHEHKDNIGSQLLLNWCVQIAKGMMYLEERRLVHRDLAARNVLVKSPNHVKITDFGLARLLEGDEKEYNADGGKMPIKWMALECIHYRKFTHQSDVWSYGVTIWELMTFGGKPYDGIPTREIPDLLEKGERLPQPPICTIDVYMVMVKCWMIDADSRPKFKELAAEFSRMARDPQRYLVIQGDDRMKLPSPNDSKFFQNLLDEEDLEDMMDAEEYLVPQAFNIPPPIYTSRARIDSNRSEIGHSPPPAYTPMSGNQFVYRDGGFAAEQGVSVPYRAPTSTIPEAPVAQGATAEIFDDSCCNGTLRKPVAPHVQEDSSTQRYSADPTVFAPERSPRGELDEEGYMTPMRDKPKQEYLNPVEENPFVSRRKNGDLQALDNPEYHNASNGPPKAEDEYVNEPLYLNTFANTLGKAEYLKNNILSMPEKAKKAFDNPDYWNHSLPPRSTLQHPDYLQEYSTKYFYKQNGRIRPIVAENPEYLSEFSLKPGTVLPPPPYRHRNTVV | – | Signal to Noise ratio with BRB1 Peptide (TR-FRET kinase assay; kinase 0.1 nM): 3.1
10 | IRR (protein) YGKKRNRTLYASVNPEYFSASDMYVPDEWEVPREQISIIRELGQGSFGMVYEGLARGLEAGEESTPVALKTVNELASPRECIEFLKEASVMKAFKCHHVVRLLGVVSQGQPTLVIMELMTRGDLKSHLRSLRPEAENNPGLPQPALGEMIQMAGEIADGMAYLAANKFVHRDLAARNCMVSQDFTVKIGDFGMTRDVYETDYYRKGGKGLLPVRWMAPESLKDGIFTTHSDVWSFGVVLWEIVTLAEQPYQGLSNEQVLKFVMDGGVLEELEGCPLQLQELMSRCWQPNPRLRPSFTHILDSIQEELRPSFRLLSFYYSPECRGARGSLPTTDAEPDSSPTPRDCSPQNGGPGH | – | Signal to Noise ratio with BRB1 Peptide (TR-FRET kinase assay; kinase 0.5 nM): 19.2
11 | FGFR4 (protein) RGQALHGRHPRPPATVQKLSRFPLARQFSLESGSSGKSSSSLVRGVRLSSSGPALLAGLVSLDLPLDPLWEFPRDRLVLGKPLGEGCFGQVVRAEAFGMDPARPDQASTVAVKMLKDNASDKDLADLVSEMEVMKLIGRHKNIINLLGVCTQEGPLYVIVECAAKGNLREFLRARRPPGPDLSPDGPRSSEGPLSFPVLVSCAYQVARGMQYLESRKCIHRDLAARNVLVTEDNVMKIADFGLARGVHHIDYYKKTSNGRLPVKWMAPEALFDRVYTHQSDVWSFGILLWEIFTLGGSPYPGIPVEELFSLLREGHRMDRPPHCPPELYGLMRECWHAAPSQRPTFKQLVEALDKVLLAVSEEYLDLRLTFGPYSPSGGDASSTCSSSDSVFSHDPLPLGSSSFPFGSGVQT | – | Signal to Noise Ratio with BRB1 Peptide (TR-FRET kinase assay; kinase 3 nM): 17.7
12 | FLT4 (protein) MRRPAHADIKTGYLSIIMDPGEVPLEEQCEYLSYDASQWEFPRERLHLGRVLGYGAFGKVVEASAFGIHKGSSCDTVAVKMLKEGATASEHRALMSELKILIHIGNHLNVVNLLGACTKPQGPLMVIVEFCKYGNLSNFLRAKRDAFSPCAEKSPEQRGRFRAMVELARLDRRRPGSSDRVLFARFSKTEGGARRASPDQEAEDLWLSPLTMEDLVCYSFQVARGMEFLASRKCIHRDLAARNILLSESDVVKICDFGLARDIYKDPDYVRKGSARLPLKWMAPESIFDKVYTTQSDVWSFGVLLWEIFSLGASPYPGVQINEEFCQRLRDGTRMRAPELATPAIRRIMLNCWSGDPKARPAFSELVEILGDLLQGRGLQEEEEVCMAPRSSQSSEEGSFSQVSTMALHIAQADAEDSPPSLQRHSLAARYYNWVSFPGCLARGAETRGSSRMKTFEEFPMTPTTYKGSVDNQTDSGMVLASEEFEQIESRHRQESGFS | 20 | –
